From paper PMC2115722

Target: Acanthamoeba actin (Acanthamoeba castellanii)
Test: cross-linking

Work on “Acanthamoeba profilin I (natural protein)” yielded a stoichiometry N (profilin per actin) of 1.
